The target of test [1] is GAL4 DNA-binding domain-p1-p6 fusion protein (yeast; human immunodeficiency virus type 1 (HIV-1)) (UniProt P04386). Put plainly: yeast 2-hybrid, β-galactosidase; Tsg101 variant with p1-p6.
The target of test [2] is GAL4 activation domain-Tsg101 fusion protein (wild-type human Tsg101) (yeast; human) (UniProt Q99816). The experiment in a line: yeast 2-hybrid, β-galactosidase; p1-p6 variant with Tsg101.

Consider 7 substances from patent US7494767.

Chain of GAL4 activation domain-Tsg101 fusion protein (wild-type human Tsg101) (yeast; human) (Q99816 whole entry, the tested form may be a part): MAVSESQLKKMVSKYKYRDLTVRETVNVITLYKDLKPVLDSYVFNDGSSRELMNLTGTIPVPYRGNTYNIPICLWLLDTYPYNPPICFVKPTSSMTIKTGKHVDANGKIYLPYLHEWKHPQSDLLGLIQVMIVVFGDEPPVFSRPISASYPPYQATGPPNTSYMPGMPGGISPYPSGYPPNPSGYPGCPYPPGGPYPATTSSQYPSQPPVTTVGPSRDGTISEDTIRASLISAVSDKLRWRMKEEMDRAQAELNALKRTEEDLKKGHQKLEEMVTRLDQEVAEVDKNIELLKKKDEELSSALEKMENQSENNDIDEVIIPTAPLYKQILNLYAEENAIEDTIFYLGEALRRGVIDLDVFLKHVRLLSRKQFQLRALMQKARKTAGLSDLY

For “GAL4 activation domain-Tsg101 Y110W (from UniProt Q99816 1-390)”, in test [1], the p6 interaction, % of wild-type (% of wild-type) amounted to 31.

Take “GAL4 DNA-binding domain-p1-p6 with the (LXX)4 repeat motif deleted (from UniProt P04386 1-147; P03347 435-512)”: the β-galactosidase activity, % of the wild-type level (% of wild-type) in test [2] was determined as 55.

“GAL4 DNA-binding domain-p1-p6 with the second PTAPP motif deleted (from UniProt P04386 1-147; P03347 435-512)” showed a β-galactosidase activity, % of wild-type protein binding (% of wild-type) in test [2] of 25.

In turn, “GAL4 activation domain-Tsg101 with Ala for Thr-Tyr-Asn (67-69) (from UniProt Q99816 1-390)” yielded a binding, % of the wild-type level (% of wild-type) in test [1] of 5.

In test [2], “GAL4 DNA-binding domain-p1-p6 with the first PTAPP motif deleted and Ala for Pro7 in the second motif (from UniProt P04386 1-147; P03347 435-512)” came in with a β-galactosidase activity, % of wild-type (% of wild-type) of 25.

Turning to “GAL4 activation domain-Tsg101 Y113V (from UniProt Q99816 1-390)”, in test [1], the binding, % of wild-type (% of wild-type) was determined as 33.

In test [2], “GAL4 DNA-binding domain-p1-p6 with the first PTAPP motif deleted (from UniProt P04386 1-147; P03347 435-512)” yielded a β-galactosidase activity, % of wild-type protein binding (% of wild-type) of 50.
